This is an account of results in patent US11667688B2, “Glucagon derivative and a composition comprising a long acting conjugate of the same” (HANMI PHARM. CO., LTD., priority 2015, dated 2023).

Bridge positions count the residues as written; N and C are the ends. Square brackets hold non-standard residues; d marks the D form. Ends that are not written are not given here. Aib = CC(C)(N)C(=O)O

The first assay deals with T1, human glucagon receptors (Homo sapiens, UniProt P47871).
T1 construct: a region corresponding to Open Reading Frame (ORF) in the cDNA; expressed in transfected cells
T1 sequence (P47871 26-477): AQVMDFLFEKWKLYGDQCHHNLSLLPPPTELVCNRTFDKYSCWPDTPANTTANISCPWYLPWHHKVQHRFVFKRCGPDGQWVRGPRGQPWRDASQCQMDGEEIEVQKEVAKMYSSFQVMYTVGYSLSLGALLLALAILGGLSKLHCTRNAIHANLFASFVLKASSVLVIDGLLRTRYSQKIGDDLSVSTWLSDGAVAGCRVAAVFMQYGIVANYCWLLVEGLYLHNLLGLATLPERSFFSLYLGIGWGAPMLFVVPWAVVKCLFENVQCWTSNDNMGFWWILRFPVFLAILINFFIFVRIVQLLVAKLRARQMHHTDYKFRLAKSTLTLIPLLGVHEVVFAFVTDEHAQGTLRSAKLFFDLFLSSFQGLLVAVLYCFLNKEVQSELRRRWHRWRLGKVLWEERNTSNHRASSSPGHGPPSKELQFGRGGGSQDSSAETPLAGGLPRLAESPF
The assay is described as follows: cAMP activity of glucagon derivatives in CHO cell line transfected with human glucagon receptor (LANCE cAMP kit). Particulars: cAMP EC50 compared with that of native glucagon; CHO cells with human glucagon receptor. It counts as cell-based. How it is done: PCR was performed using a region corresponding to Open Reading Frame (ORF) in the cDNA (OriGene Technologies, Inc., USA) of human glucagon receptor gene as a template along with the following forward and reverse primers (SEQ ID NOS: 47 and 48, respectively), which include each of the EcoRI and XhoI restriction sites.
The PCR product was cloned into a known animal cell expression vector, x0GC/dhfr, to prepare a recombinant vector x0GC/GCGR.
CHO DG44 cell line cultured in DMEM/F12 (10% FBS) medium was transfected with the recombinant vector x0GC/GCGR using LIPOFECTAMINE®, and cultured in a selection medium containing G418 (1 mg/mL) and methotraxate (10 nM).
Specifically, the transfected cell line was subcultured 3 to 4 times a week, aliquoted into a 384-well plate in an amount of 6×10^3 cell lines/well, and cultured for 24 hours. Native glucagon and glucagon derivatives were suspended in Hank's balanced salt solution (HBSS) buffer containing 0.5 mM of 3-isobutyl-1-methylxanthine (IBMX), 0.1% bovine serum albumin (BSA), and 5 mM 4-(2-hydroxyethyl)-1-piperazineethanesulfonic acid (HEPES) with the culture cells, at concentrations of 200 nM and 1600 nM, respectively, continuously subjected into a 4-fold dilution 10 times, applied to a cAMP assay kit (LANCE cAMP 384 kit, PerkinElmer), and added to the cultured cells, and their fluorescence value was measured.
In general terms: In TR-FRET formats the signal depends on donor and acceptor labels being close together.
For “YXQGTFTSDYSKYLDEKRAKEFVQWLMNTC (Y[Aib]QGTFTSDYSKYLDEKRAKEFVQWLMNTC; bridge 16-20) [SEQ ID NO: 12, glucagon derivative, X = Aib]”, the “In vitro Activity (Relative Activity of SEQ ID NO: 1, %)” value was 56.3%. Still for that read-out and setting: the result for “YXQGTFTSDYSKYLDEKRCKEFVQWLMNT (Y[Aib]QGTFTSDYSKYLDEKRCKEFVQWLMNT; bridge 16-20) [SEQ ID NO: 22, glucagon derivative, X = Aib]” reads 147.8%; that for “YXQGTFTSDYSKCLDERRAKDFVQWLMNT (Y[Aib]QGTFTSDYSKCLDERRAKDFVQWLMNT; bridge 16-20) [SEQ ID NO: 29, glucagon derivative, X = Aib]”, 61.3%; that for “YXQGTFTSDYSKYLCEKRAKEFVQWLMNT (Y[Aib]QGTFTSDYSKYLCEKRAKEFVQWLMNT; bridge 16-20) [SEQ ID NO: 19, glucagon derivative, X = Aib]”, 12.1%.

As to “YXQGTFVSDCSKYLDERRAKDFVQWLMNT (Y[Aib]QGTFVSDCSKYLDERRAKDFVQWLMNT; bridge 16-20) [SEQ ID NO: 39, glucagon derivative, X = Aib]”, the “In vitro Activity (Relative Activity of SEQ ID NO: 1, %)” value worked out at 3.7%.

System in a further assay: not given
Test: not given
As to conditions: when taken for one year; cited from earlier work.
For `CCCCCCCCCCC[C@@H](C[C@@H]1OC(=O)[C@H]1CCCCCC)OC(=O)[C@H](CC(C)C)NC=O` [ORLISTAT], the weight loss entry is “about 4 kg”.
